In US20230212587A1, “Mutant Hydroxyphenylpyruvate Dioxygenase Polypeptide, Encoding Gene Thereof and Use Therefor” (Beijing Dabeinong Biotechnology Co., Ltd., priority 2019, published 2023):
Substitutions are numbered along the chain they refer to. Numbers in names are those of the source.

B1: CsHPPDm-F372A-02: Cucumis sativus HPPD mutant F372A, SEQ ID NO: 120 (protein)
chain: MGKEADFPRAPSEATDGGATASQSEFELQGFDNFIRTNPKSDRFKVKRFHHIEFWCTDATNVARRFSWGLGMQIVAKSDLSTGNMTHASYLLRSGHLCFLFTAPYSPSIAAAQNLTPASTASIPSFDHSVCRSFSGTHGFGARAIALEVEDAEIAFRTSVAHGAKPSCPPIVLENRAVLSEVHLYGDVVLRYISYKNPVSGDNGENKPDEWFLPKFEAMEETASFPLDFGIRRLDHAVGNVPELGPAVSYLKGFTGFHEFAEFTAEDVGTSESGLNSMVLANNEEMVLLPINEPVFGTKRKSQIQTYLEHNEGAGVQHLALMSEDIFRTLREMRKRSSVGGFEFMPSPPPTYYKNLKSRAGDVLTDEQIKECEELGILVDKDDQGTLLQIATKPVGDRPTIFIEIIQRLGCMMKDEEGKAFQKGGCGGFGKGNFSELFKSIEEYEKTLEAKRVSE
modifications: CsHPPDm-F372A Amino Acid Sequence
B2: StHPPD-02: native Solanum tuberosum HPPD, SEQ ID NO: 123 (protein, listed as Solanum tuberosum)
chain: MGKQAATATATATATADDQQLPADIEDKYKLVGFNNFVRTNPRSDLFNVKRFHHIEFWCGDATNTARRFSWGLGLPIAAKSDLSTGNSVHASYLLRSSSSQLQFLFTAPYSPAISTPSSSSIPTFSVSSHRSFTETHGLGVRAIALEVENSRLAFSTCVSHGAKPVSEPVILNDEVVISEVHLYGDVVLRFVSFLKDSNRFVFLPGFELVEGAQLDYGIRRLDHAVGNVPQLGPVVEYIKSFTGFHEFAEFTAEDVGTAESGLNSVVLANNDETVLFPLNEPVYGTKRKSQIQTYLEHNEGAGVQHLALVTEDIFRTLREMRKRSGIGGFEFMPSPPPTYYKNLKSRAGDILSDEQIKECEELGILVDRDDQGTLLQIFTKPVGDRPTIFLEIIQRIGCMLQNAEGELYQKGGCGGFGKGNFSELFKSIEEYEKTLEAKQNTQVAIA
modifications: StHPPD Amino Acid Sequence
B3: StHPPDm-F372A-02: Solanum tuberosum HPPD mutant F372A, SEQ ID NO: 126 (protein)
chain: B2 chain with F379A
modifications: StHPPDm-F372A Amino Acid Sequence
B4: S1HPPD-02: native Solanum lycopersicum HPPD, SEQ ID NO: 129 (protein)
chain: MGKQAAAAADDQQLPGDIEDKFKLVGFNHFVRTNPRSDFFTVKRFHHIEFWCGDATNTARRFSWGLGLPIAAISDLSTGNSVHASYLLRSSSSSQLQFLFTAPYSSAISTSSSASIPTFSVSSHRSFTATHGLGVRAIALEVENSRLAFSTCVAHGAKPVSEPVILNDEVVIAEVHLYGDVVLRFVSFLKDSNCFVFLPGFESVEGAQLDYGIRRLDHAVGNVPELGPVVEYIKSFTGFHEFAEFTAEDVGTAESGLNSVVLANNDETVLFPLNEPVYGTKRKSQIQTYLEHNEGAGVQHLALVTEDIFRTLREMRKRSGIGGFEFMPSPPPTYYKNLKTRAGDILSDEQIQECEELGILVDRDDQGTLLQIFTKPVGDRPTIFLEIIQRIGCMLKNEEGELYQKGGCGGFGKGNFSELFKSIEEYEKTLEAKQNTQVAIA
modifications: SlHPPD Amino Acid Sequence (Solanum lycopersicum)
B5: S1HPPDm-F372A-02: Solanum lycopersicum HPPD mutant F372A, SEQ ID NO: 132 (protein)
chain: B4 chain with F373A
modifications: SlHPPDm-F372A Amino Acid Sequence
B6: AhHPPD-02: native Arachis hypogaea HPPD, SEQ ID NO: 135 (protein, listed as Arachis hypogaea)
chain: MATAYTYAHAVTYCNSQHNPPIIPILSTNQHPPRVTLPSSIPHFISTITTFNLKHFPSHSLHTVMVTQTQQNAPSSSPELGFKLVGFKNFVRTNPKSDRFKVIRFHHVEFWCTDATNTASRFSWGLGMPIVAKSDLSTGNAVHASYLLRSGDLNFLFSAPYSASIAGDGASASFPSFSASDCHSFAAKHGLAVRAVAIEVEDASAAFSASVANGAKPVSPAVLLDNSVGFAEVHLYGDVVLRYISYSAPTRESNLNPTLRFLPGFEAVEADSSFPELDYGIRRLDHAVGNVPELAPAVNYLKKFTGFHEFAEFTAEDVGTSESGLNSVVLASNDEMVLLPLNEPVYGTKRKSQIETYLEHNEGAGLQHLALVSEDIFRTLREMRKRSTIGGFQFMPSPPPTYYRNLKKRAGDVLSDEQIKECEELGILVDRDDQGTLLQIFTKPVGDRPTIFIEIIQRIGCMLKDEEGKVYQKGGCGGFGKGNFSELFKSIEEYEKTLESRRTA
modifications: AhHPPD Amino Acid Sequence
B7: AhHPPDm-F372A-02: Arachis hypogaea HPPD mutant F372A, SEQ ID NO: 138 (protein)
chain: B6 chain with F441A
modifications: AhHPPDm-F372A Amino Acid Sequence

System: Arabidopsis thaliana T1 plants
Test: Topramezone tolerance of transgenic Arabidopsis thaliana T1 plants (pesticide damage grade by bleached leaf area, score, resistance evaluation)
Assay type: in vivo
Conditions: HPPDs from different species; number of plants (of 16) in this grade; topramezone 25 g ai/ha (1x), 7 DAT
How it was run: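 Herbicide tolerance was judged per plant on a bleaching scale (grade 0 no bleaching to grade 3 fully bleached) 7 DAT. Topramezone doses were 0, 25, 50 and 100 g ai/ha on 18-day-old T1 and wild-type plants.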

Question: Which results are given for B1?
Answer: Classification and statistics of pesticide damage grade Grade 0: 0; Classification and statistics of pesticide damage grade Grade 1: 0; Classification and statistics of pesticide damage grade Grade 2: 16; Classification and statistics of pesticide damage grade Grade 3: 0

Question: For B2, which “Classification and statistics of pesticide damage grade Grade 0” value is on record?
Answer: 0

Question: And the “Classification and statistics of pesticide damage grade Grade 1” value?
Answer: 0

Question: And the “Classification and statistics of pesticide damage grade Grade 2” value?
Answer: 0

Question: And the “Classification and statistics of pesticide damage grade Grade 3” value?
Answer: 16

Question: With B3 as the molecule, how does the “Classification and statistics of pesticide damage grade Grade 0” value read?
Answer: 4

Question: And the “Classification and statistics of pesticide damage grade Grade 1” value?
Answer: 12

Question: What about the “Classification and statistics of pesticide damage grade Grade 2” value of the same molecule?
Answer: 0

Question: And the “Classification and statistics of pesticide damage grade Grade 3” value?
Answer: 0

Question: B4 was tested. Which “Classification and statistics of pesticide damage grade Grade 0” value did it give?
Answer: 0

Question: And the “Classification and statistics of pesticide damage grade Grade 1” value?
Answer: 0

Question: And the “Classification and statistics of pesticide damage grade Grade 2” value?
Answer: 0

Question: What about the “Classification and statistics of pesticide damage grade Grade 3” value of the same molecule?
Answer: 16

Question: What does the source list for B5?
Answer: Classification and statistics of pesticide damage grade Grade 0: 1; Classification and statistics of pesticide damage grade Grade 1: 1; Classification and statistics of pesticide damage grade Grade 2: 14; Classification and statistics of pesticide damage grade Grade 3: 0

Question: Which results are given for B6?
Answer: Classification and statistics of pesticide damage grade Grade 0: 0; Classification and statistics of pesticide damage grade Grade 1: 0; Classification and statistics of pesticide damage grade Grade 2: 0; Classification and statistics of pesticide damage grade Grade 3: 16

Question: What does the source list for B7?
Answer: Classification and statistics of pesticide damage grade Grade 0: 2; Classification and statistics of pesticide damage grade Grade 1: 12; Classification and statistics of pesticide damage grade Grade 2: 2; Classification and statistics of pesticide damage grade Grade 3: 0

Same assay, conditions: HPPDs from different species; number of plants (of 16) in this grade; topramezone 100 g ai/ha (4x), 7 DAT

Question: What does the source list for B1?
Answer: Classification and statistics of pesticide damage grade Grade 0: 0; Classification and statistics of pesticide damage grade Grade 1: 0; Classification and statistics of pesticide damage grade Grade 2: 0; Classification and statistics of pesticide damage grade Grade 3: 16

Question: B2 was tested. Which “Classification and statistics of pesticide damage grade Grade 0” value did it give?
Answer: 0

Question: And the “Classification and statistics of pesticide damage grade Grade 1” value?
Answer: 0

Question: What about the “Classification and statistics of pesticide damage grade Grade 2” value of the same molecule?
Answer: 0

Question: What about the “Classification and statistics of pesticide damage grade Grade 3” value of the same molecule?
Answer: 16

Question: B3 was tested. Which “Classification and statistics of pesticide damage grade Grade 0” value did it give?
Answer: 0

Question: And the “Classification and statistics of pesticide damage grade Grade 1” value?
Answer: 1

Question: And the “Classification and statistics of pesticide damage grade Grade 2” value?
Answer: 4

Question: And the “Classification and statistics of pesticide damage grade Grade 3” value?
Answer: 11

Question: Which results are given for B4?
Answer: Classification and statistics of pesticide damage grade Grade 0: 0; Classification and statistics of pesticide damage grade Grade 1: 0; Classification and statistics of pesticide damage grade Grade 2: 0; Classification and statistics of pesticide damage grade Grade 3: 16

Question: Which “Classification and statistics of pesticide damage grade Grade 0” value does the source give for B5 here?
Answer: 0

Question: And the “Classification and statistics of pesticide damage grade Grade 1” value?
Answer: 1

Question: And the “Classification and statistics of pesticide damage grade Grade 2” value?
Answer: 4

Question: What about the “Classification and statistics of pesticide damage grade Grade 3” value of the same molecule?
Answer: 11

Question: With B6 as the molecule, how does the “Classification and statistics of pesticide damage grade Grade 0” value read?
Answer: 0

Question: And the “Classification and statistics of pesticide damage grade Grade 1” value?
Answer: 0

Question: And the “Classification and statistics of pesticide damage grade Grade 2” value?
Answer: 0

Question: What about the “Classification and statistics of pesticide damage grade Grade 3” value of the same molecule?
Answer: 16

Question: What does the source list for B7?
Answer: Classification and statistics of pesticide damage grade Grade 0: 0; Classification and statistics of pesticide damage grade Grade 1: 0; Classification and statistics of pesticide damage grade Grade 2: 10; Classification and statistics of pesticide damage grade Grade 3: 6

Same assay, conditions: HPPDs from different species; score for pesticide damage 0-100; topramezone 25 g ai/ha (1x), 7 DAT

Question: Which Scores does the source give for B1 here?
Answer: 67

Question: Which Scores does the source give for B2 here?
Answer: 100

Question: B3 was tested. Which Scores did it give?
Answer: 25

Question: For B4, which Scores is on record?
Answer: 100

Question: How did the Scores turn out when B5 was run?
Answer: 60

Question: B6 was tested. Which Scores did it give?
Answer: 100

Question: B7 was tested. Which Scores did it give?
Answer: 33

Same assay, conditions: HPPDs from different species; score for pesticide damage 0-100; topramezone 100 g ai/ha (4x), 7 DAT

Question: For B1, which Scores is on record?
Answer: 100

Question: For B2, which Scores is on record?
Answer: 100

Question: B3 was tested. Which Scores did it give?
Answer: 88

Question: How did the Scores turn out when B4 was run?
Answer: 100

Question: For B5, which Scores is on record?
Answer: 88

Question: Which Scores does the source give for B6 here?
Answer: 100

Question: Which Scores does the source give for B7 here?
Answer: 79

Same assay, conditions: HPPDs from different species; topramezone 25 g ai/ha (1x), 7 DAT

Question: With B1 as the molecule, how does the Resistance evaluation read?
Answer: poorly resistant (poorly resistant plants (scores 34-67))

Question: Which Resistance evaluation does the source give for B2 here?
Answer: non-resistant (non-resistant plants (scores 68-100))

Question: B3 was tested. Which Resistance evaluation did it give?
Answer: moderately resistant (moderately resistant plants (scores 16-33))

Question: For B4, which Resistance evaluation is on record?
Answer: non-resistant (non-resistant plants (scores 68-100))

Question: With B5 as the molecule, how does the Resistance evaluation read?
Answer: poorly resistant (poorly resistant plants (scores 34-67))

Question: With B6 as the molecule, how does the Resistance evaluation read?
Answer: non-resistant (non-resistant plants (scores 68-100))

Question: B7 was tested. Which Resistance evaluation did it give?
Answer: moderately resistant (moderately resistant plants (scores 16-33))

Same assay, conditions: HPPDs from different species; topramezone 100 g ai/ha (4x), 7 DAT

Question: Which Resistance evaluation does the source give for B1 here?
Answer: non-resistant (non-resistant plants (scores 68-100))

Question: How did the Resistance evaluation turn out when B2 was run?
Answer: non-resistant (non-resistant plants (scores 68-100))

Question: B3 was tested. Which Resistance evaluation did it give?
Answer: non-resistant (non-resistant plants (scores 68-100))

Question: For B4, which Resistance evaluation is on record?
Answer: non-resistant (non-resistant plants (scores 68-100))

Question: With B5 as the molecule, how does the Resistance evaluation read?
Answer: non-resistant (non-resistant plants (scores 68-100))

Question: B6 was tested. Which Resistance evaluation did it give?
Answer: non-resistant (non-resistant plants (scores 68-100))

Question: With B7 as the molecule, how does the Resistance evaluation read?
Answer: non-resistant (non-resistant plants (scores 68-100))
